PMC9832913

Molecular target: human A2A adenosine receptor (A2AAR), residues 1-316, N154Q (human) (UniProt P29274)
Assay: SEC

Chain of UniProt P29274 (P29274 1-316 N154Q): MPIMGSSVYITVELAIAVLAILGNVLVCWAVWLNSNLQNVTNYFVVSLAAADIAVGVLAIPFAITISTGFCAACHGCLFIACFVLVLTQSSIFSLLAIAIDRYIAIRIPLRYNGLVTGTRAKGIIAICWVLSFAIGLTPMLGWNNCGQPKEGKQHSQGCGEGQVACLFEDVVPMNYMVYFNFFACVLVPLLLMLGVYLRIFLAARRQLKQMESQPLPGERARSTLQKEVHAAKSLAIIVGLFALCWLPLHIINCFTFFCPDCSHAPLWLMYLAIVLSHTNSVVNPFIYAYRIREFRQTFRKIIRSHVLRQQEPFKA

- percent of the receptor in complex: 95%
Substance: mini-Gs, an engineered variant of the Gs protein α-subunit
